# Reference: patent publication US20260242419A1, “A CYCLIC PEPTIDE FOR TRAPPING INTERLEUKIN-1 BETA” (Merck Sharp & Dohme LLC, priority 2023, published 2026)
# Starred links: 1 amine or outer side, 2 acyl side, 3 side chain; linkers in the order of their positions; H or OH if unused. Non-standard residues stand in square brackets, D forms with d. PyrimAla4AcPip = (2S)-3-[2-(4-acetylpiperazin-1-yl)pyrimidin-5-yl]-2-amino-propanoic acid, CC(=O)N1CCN(c2ncc(C[C@H](N[*:1])C(=O)[*:2])cn2)CC1; TyrEtNAc = (2S)-3-[4-(2-acetamidoethoxy)phenyl]-2-amino-propanoic acid, CC(=O)NCCOc1ccc(C[C@H](N[*:1])C(=O)[*:2])cc1; dPro(4R-(4-pyridylmethyl)) = O=C(O)[C@H]1C[C@@H](Cc2ccncc2)CN1; dPro(3S-(4-Br-benzyl)) = O=C(O)[C@@H]1NCC[C@@H]1Cc1ccc(Br)cc1; Trp(βS-Me,4-F) = C[C@@H](c1c[nH]c2cccc(F)c12)[C@H](N)C(=O)O; Bip(4'-COOH) = N[C@@H](Cc1ccc(-c2ccc(C(=O)O)cc2)cc1)C(=O)O; Ala(1-bicyclo(1.1.1)pentyl) = N[C@@H](CC12CC(C1)C2)C(=O)O; dPro(4R-Bzl(4-F)) = O=C(O)[C@H]1C[C@@H](Cc2ccc(F)cc2)CN1; Ala(pyrimidin-5-yl) = N[C@@H](Cc1cncnc1)C(=O)O; Phe(4-COOH) = N[C@@H](Cc1ccc(C(=O)O)cc1)C(=O)O; Pro(cis-4-F) = O=C(O)[C@@H]1C[C@H](F)CN1; 4Pal = N[C@@H](Cc1ccncc1)C(=O)O; Dab = NCC[C@H](N)C(=O)O; Dap = NC[C@H](N)C(=O)O; Aib = CC(C)(N)C(=O)O
# B1: SEQ ID NO: 4 (peptide)
# peptide: cyclo([Bip(4'-COOH)][4Pal][Phe(4-COOH)]G[Pro(cis-4-F)][Trp(βS-Me,4-F)][Aib]EW[Aib][Ala(pyrimidin-5-yl)]Q[Dab]G[dPro(4R-Bzl(4-F))])
# SMILES: C[C@@H](c1c[nH]c2cccc(F)c12)[C@@H]1NC(=O)[C@@H]2C[C@H](F)CN2C(=O)CNC(=O)[C@H](Cc2ccc(C(=O)O)cc2)NC(=O)[C@H](Cc2ccncc2)NC(=O)[C@H](Cc2ccc(-c3ccc(C(=O)O)cc3)cc2)NC(=O)[C@H]2C[C@@H](Cc3ccc(F)cc3)CN2C(=O)CNC(=O)[C@H](CCN)NC(=O)[C@H](CCC(N)=O)NC(=O)[C@H](Cc2cncnc2)NC(=O)C(C)(C)NC(=O)[C@H](Cc2c[nH]c3ccccc23)NC(=O)[C@H](CCC(=O)O)NC(=O)C(C)(C)NC1=O
# B2: SEQ ID NO: 40 (peptide)
# peptide: cyclo([PyrimAla4AcPip][4Pal][Phe(4-COOH)]G[Pro(cis-4-F)][Trp(βS-Me,4-F)][Aib]EW[Aib][Ala(pyrimidin-5-yl)]Q[Dab]G[dPro(4R-Bzl(4-F))])
# SMILES: CC(=O)N1CCN(c2ncc(C[C@@H]3NC(=O)[C@H]4C[C@@H](Cc5ccc(F)cc5)CN4C(=O)CNC(=O)[C@H](CCN)NC(=O)[C@H](CCC(N)=O)NC(=O)[C@H](Cc4cncnc4)NC(=O)C(C)(C)NC(=O)[C@H](Cc4c[nH]c5ccccc45)NC(=O)[C@H](CCC(=O)O)NC(=O)C(C)(C)NC(=O)[C@H]([C@@H](C)c4c[nH]c5cccc(F)c45)NC(=O)[C@@H]4C[C@H](F)CN4C(=O)CNC(=O)[C@H](Cc4ccc(C(=O)O)cc4)NC(=O)[C@H](Cc4ccncc4)NC3=O)cn2)CC1
# B3: SEQ ID NO: 41 (peptide)
# peptide: cyclo([Bip(4'-COOH)][4Pal][Phe(4-COOH)]G[Pro(cis-4-F)][Trp(βS-Me,4-F)][Aib]AW[Aib][Ala(pyrimidin-5-yl)]Q[Dab]G[dPro(4R-(4-pyridylmethyl))])
# SMILES: C[C@@H]1NC(=O)C(C)(C)NC(=O)[C@H]([C@@H](C)c2c[nH]c3cccc(F)c23)NC(=O)[C@@H]2C[C@H](F)CN2C(=O)CNC(=O)[C@H](Cc2ccc(C(=O)O)cc2)NC(=O)[C@H](Cc2ccncc2)NC(=O)[C@H](Cc2ccc(-c3ccc(C(=O)O)cc3)cc2)NC(=O)[C@H]2C[C@@H](Cc3ccncc3)CN2C(=O)CNC(=O)[C@H](CCN)NC(=O)[C@H](CCC(N)=O)NC(=O)[C@H](Cc2cncnc2)NC(=O)C(C)(C)NC(=O)[C@H](Cc2c[nH]c3ccccc23)NC1=O
# B4: SEQ ID NO: 42 (peptide)
# peptide: cyclo([Bip(4'-COOH)][4Pal][Phe(4-COOH)]G[Pro(cis-4-F)][Trp(βS-Me,4-F)][Aib]SW[Aib][Ala(pyrimidin-5-yl)]Q[Dab]G[dPro(4R-(4-pyridylmethyl))])
# B5: SEQ ID NO: 43 (peptide)
# peptide: cyclo([Bip(4'-COOH)][Ala(1-bicyclo(1.1.1)pentyl)][Phe(4-COOH)]G[Pro(cis-4-F)][Trp(βS-Me,4-F)][Aib]EW[Aib][Ala(pyrimidin-5-yl)]Q[Dab]G[dPro(4R-(4-pyridylmethyl))])
# SMILES: C[C@@H](c1c[nH]c2cccc(F)c12)[C@@H]1NC(=O)[C@@H]2C[C@H](F)CN2C(=O)CNC(=O)[C@H](Cc2ccc(C(=O)O)cc2)NC(=O)[C@H](CC23CC(C2)C3)NC(=O)[C@H](Cc2ccc(-c3ccc(C(=O)O)cc3)cc2)NC(=O)[C@H]2C[C@@H](Cc3ccncc3)CN2C(=O)CNC(=O)[C@H](CCN)NC(=O)[C@H](CCC(N)=O)NC(=O)[C@H](Cc2cncnc2)NC(=O)C(C)(C)NC(=O)[C@H](Cc2c[nH]c3ccccc23)NC(=O)[C@H](CCC(=O)O)NC(=O)C(C)(C)NC1=O
# B6: SEQ ID NO: 44 (peptide)
# peptide: cyclo([Bip(4'-COOH)][Ala(1-bicyclo(1.1.1)pentyl)][Phe(4-COOH)]G[Pro(cis-4-F)][Trp(βS-Me,4-F)][Aib]SW[Aib][Ala(pyrimidin-5-yl)]Q[Dab]G[dPro(4R-(4-pyridylmethyl))])
# B7: SEQ ID NO: 45 (peptide)
# peptide: cyclo([Bip(4'-COOH)][Ala(1-bicyclo(1.1.1)pentyl)][Phe(4-COOH)]G[Pro(cis-4-F)][Trp(βS-Me,4-F)][Aib]EW[Aib][4Pal]Q[Dab]G[dPro(4R-(4-pyridylmethyl))])
# SMILES: C[C@@H](c1c[nH]c2cccc(F)c12)[C@@H]1NC(=O)[C@@H]2C[C@H](F)CN2C(=O)CNC(=O)[C@H](Cc2ccc(C(=O)O)cc2)NC(=O)[C@H](CC23CC(C2)C3)NC(=O)[C@H](Cc2ccc(-c3ccc(C(=O)O)cc3)cc2)NC(=O)[C@H]2C[C@@H](Cc3ccncc3)CN2C(=O)CNC(=O)[C@H](CCN)NC(=O)[C@H](CCC(N)=O)NC(=O)[C@H](Cc2ccncc2)NC(=O)C(C)(C)NC(=O)[C@H](Cc2c[nH]c3ccccc23)NC(=O)[C@H](CCC(=O)O)NC(=O)C(C)(C)NC1=O
# B8: SEQ ID NO: 46 (peptide)
# peptide: cyclo([Bip(4'-COOH)][Ala(1-bicyclo(1.1.1)pentyl)][Phe(4-COOH)]G[Pro(cis-4-F)][Trp(βS-Me,4-F)][Aib]EW[Aib][Ala(pyrimidin-5-yl)]Q[Dap]G[dPro(4R-(4-pyridylmethyl))])
# SMILES: C[C@@H](c1c[nH]c2cccc(F)c12)[C@@H]1NC(=O)[C@@H]2C[C@H](F)CN2C(=O)CNC(=O)[C@H](Cc2ccc(C(=O)O)cc2)NC(=O)[C@H](CC23CC(C2)C3)NC(=O)[C@H](Cc2ccc(-c3ccc(C(=O)O)cc3)cc2)NC(=O)[C@H]2C[C@@H](Cc3ccncc3)CN2C(=O)CNC(=O)[C@H](CN)NC(=O)[C@H](CCC(N)=O)NC(=O)[C@H](Cc2cncnc2)NC(=O)C(C)(C)NC(=O)[C@H](Cc2c[nH]c3ccccc23)NC(=O)[C@H](CCC(=O)O)NC(=O)C(C)(C)NC1=O
# B9: SEQ ID NO: 47 (peptide)
# peptide: cyclo([Bip(4'-COOH)][4Pal][Phe(4-COOH)]G[Pro(cis-4-F)][Trp(βS-Me,4-F)][Aib]EW[Aib][4Pal]Q[Dap]G[dPro(4R-(4-pyridylmethyl))])
# SMILES: C[C@@H](c1c[nH]c2cccc(F)c12)[C@@H]1NC(=O)[C@@H]2C[C@H](F)CN2C(=O)CNC(=O)[C@H](Cc2ccc(C(=O)O)cc2)NC(=O)[C@H](Cc2ccncc2)NC(=O)[C@H](Cc2ccc(-c3ccc(C(=O)O)cc3)cc2)NC(=O)[C@H]2C[C@@H](Cc3ccncc3)CN2C(=O)CNC(=O)[C@H](CN)NC(=O)[C@H](CCC(N)=O)NC(=O)[C@H](Cc2ccncc2)NC(=O)C(C)(C)NC(=O)[C@H](Cc2c[nH]c3ccccc23)NC(=O)[C@H](CCC(=O)O)NC(=O)C(C)(C)NC1=O
# B10: SEQ ID NO: 48 (peptide)
# peptide: cyclo([Bip(4'-COOH)][Ala(1-bicyclo(1.1.1)pentyl)][Phe(4-COOH)]G[Pro(cis-4-F)][Trp(βS-Me,4-F)][Aib]EW[Aib][4Pal]Q[Dap]G[dPro(4R-(4-pyridylmethyl))])
# B11: SEQ ID NO: 49 (peptide)
# peptide: cyclo([TyrEtNAc][4Pal][Phe(4-COOH)]G[Pro(cis-4-F)][Trp(βS-Me,4-F)][Aib]EW[Aib][Ala(pyrimidin-5-yl)]Q[Dab]G[dPro(4R-(4-pyridylmethyl))])
# SMILES: CC(=O)NCCOc1ccc(C[C@@H]2NC(=O)[C@H]3C[C@@H](Cc4ccncc4)CN3C(=O)CNC(=O)[C@H](CCN)NC(=O)[C@H](CCC(N)=O)NC(=O)[C@H](Cc3cncnc3)NC(=O)C(C)(C)NC(=O)[C@H](Cc3c[nH]c4ccccc34)NC(=O)[C@H](CCC(=O)O)NC(=O)C(C)(C)NC(=O)[C@H]([C@@H](C)c3c[nH]c4cccc(F)c34)NC(=O)[C@@H]3C[C@H](F)CN3C(=O)CNC(=O)[C@H](Cc3ccc(C(=O)O)cc3)NC(=O)[C@H](Cc3ccncc3)NC2=O)cc1
# B12: SEQ ID NO: 5 (peptide)
# peptide: cyclo([Bip(4'-COOH)][4Pal][Phe(4-COOH)]G[Pro(cis-4-F)][Trp(βS-Me,4-F)][Aib]SW[Aib]SQ[Dab]G[dPro(4R-Bzl(4-F))])
# SMILES: C[C@@H](c1c[nH]c2cccc(F)c12)[C@@H]1NC(=O)[C@@H]2C[C@H](F)CN2C(=O)CNC(=O)[C@H](Cc2ccc(C(=O)O)cc2)NC(=O)[C@H](Cc2ccncc2)NC(=O)[C@H](Cc2ccc(-c3ccc(C(=O)O)cc3)cc2)NC(=O)[C@H]2C[C@@H](Cc3ccc(F)cc3)CN2C(=O)CNC(=O)[C@H](CCN)NC(=O)[C@H](CCC(N)=O)NC(=O)[C@H](CO)NC(=O)C(C)(C)NC(=O)[C@H](Cc2c[nH]c3ccccc23)NC(=O)[C@H](CO)NC(=O)C(C)(C)NC1=O
# B13: SEQ ID NO: 50 (peptide)
# peptide: cyclo([TyrEtNAc][Ala(1-bicyclo(1.1.1)pentyl)][Phe(4-COOH)]G[Pro(cis-4-F)][Trp(βS-Me,4-F)][Aib]EW[Aib][Ala(pyrimidin-5-yl)]Q[Dab]G[dPro(4R-(4-pyridylmethyl))])
# SMILES: CC(=O)NCCOc1ccc(C[C@@H]2NC(=O)[C@H]3C[C@@H](Cc4ccncc4)CN3C(=O)CNC(=O)[C@H](CCN)NC(=O)[C@H](CCC(N)=O)NC(=O)[C@H](Cc3cncnc3)NC(=O)C(C)(C)NC(=O)[C@H](Cc3c[nH]c4ccccc34)NC(=O)[C@H](CCC(=O)O)NC(=O)C(C)(C)NC(=O)[C@H]([C@@H](C)c3c[nH]c4cccc(F)c34)NC(=O)[C@@H]3C[C@H](F)CN3C(=O)CNC(=O)[C@H](Cc3ccc(C(=O)O)cc3)NC(=O)[C@H](CC34CC(C3)C4)NC2=O)cc1
# B14: SEQ ID NO: 51 (peptide)
# peptide: cyclo([Bip(4'-COOH)][4Pal][Phe(4-COOH)]G[Pro(cis-4-F)][Trp(βS-Me,4-F)][Aib]EW[Aib][Ala(pyrimidin-5-yl)]Q[Dab]G[dPro(3S-(4-Br-benzyl))])
# Target: Recombinant human IL-1β (BioLegend 579404) (human, UniProt P01584 117-269)
# Assay: cell-based or functional assay
row,Binder,MRC5 IC50
1,B1,31 pM
2,B2,48 pM
3,B3,29 pM
4,B4,21 pM
5,B5,26 pM
6,B6,21 pM
7,B7,27 pM
8,B8,34 pM
9,B9,29 pM
10,B10,27 pM
11,B11,47 pM
12,B12,39 pM
13,B13,44 pM
14,B14,14 pM
